Test in all cases: cell-based or functional assay
Experiment [1] deals with F protein of RSV clinical isolate B3-447 (Respiratory Syncytial Virus).
For experiment [2], the target named is F protein of RSV clinical isolate B1-6973 (Respiratory Syncytial Virus).
The target in experiment [3] is F protein of RSV clinical isolate B2-6556 (Respiratory Syncytial Virus).
Experiment [4] concerns the target F protein of RSV clinical isolate A2-626 (Respiratory Syncytial Virus).
The target of experiment [5] is F protein of RS Long strain virus (native form, on virus and infected VERO cells) (Respiratory Syncytial Virus) (UniProt P12568).
Experiment [6] has as its target F protein of RSV clinical isolate A4-6652 (Respiratory Syncytial Virus).
Experiment [7] addresses F protein of RSV clinical isolate A1-V1763 (Respiratory Syncytial Virus).
Experiment [8] deals with F protein of RSV clinical isolate A3-7062 (Respiratory Syncytial Virus).
The target in experiment [9] is F protein of RSV clinical isolate A2-847 (Respiratory Syncytial Virus).
Experiment [10] has as its target F protein of RS 9320 (prototype B1) (Respiratory Syncytial Virus).

F protein of RS Long strain virus (native form, on virus and infected VERO cells) (Respiratory Syncytial Virus), sequence (P12568 26-574): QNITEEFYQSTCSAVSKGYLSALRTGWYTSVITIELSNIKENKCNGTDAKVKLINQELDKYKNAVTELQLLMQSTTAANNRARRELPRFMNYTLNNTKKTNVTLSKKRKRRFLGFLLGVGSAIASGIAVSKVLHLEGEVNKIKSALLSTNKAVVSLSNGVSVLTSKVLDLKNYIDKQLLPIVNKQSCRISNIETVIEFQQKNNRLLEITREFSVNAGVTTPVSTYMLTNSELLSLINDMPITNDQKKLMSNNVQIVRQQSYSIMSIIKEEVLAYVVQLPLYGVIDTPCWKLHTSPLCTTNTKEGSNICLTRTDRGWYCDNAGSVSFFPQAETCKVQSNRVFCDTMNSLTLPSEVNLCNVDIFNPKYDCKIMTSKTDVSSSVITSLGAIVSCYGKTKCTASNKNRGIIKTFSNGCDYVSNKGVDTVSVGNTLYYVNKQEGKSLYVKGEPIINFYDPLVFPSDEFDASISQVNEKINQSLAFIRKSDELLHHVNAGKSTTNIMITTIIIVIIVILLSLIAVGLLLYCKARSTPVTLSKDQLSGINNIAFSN

SB 209763 (antibody): the Fusion-Inhibition Titer EC50 was 1.7 µg/mL in [1]; 2.22 µg/mL in experiment [2]; 2.05 µg/mL in experiment [3]; 0.36 µg/mL in [4]; 1.3 µg/mL in experiment [5]; 1.52 µg/mL in experiment [6]. The Fusion-Inhibition Titer EC50 in experiment [7] came out at 1.95 µg/mL; in experiment [8], 1.67 µg/mL; in experiment [9], 0.27 µg/mL; in [10], 2.5 µg/mL.
